Measurements taken from US10358672B2, “7-β-hydroxysteroid dehydrogenase mutants and process for the preparation of ursodeoxycholic acid” (Pharmazell GmbH, priority 2014, dated 2019).

Legend:
[1] = target: 7β-HSDH obtainable from Collinsella aerofaciens DSM 3979 (Collinsella aerofaciens, UniProt A4ECA9); conditions: cited from earlier work
[2] = substrate: C[C@H](CCC(=O)O)[C@H]1CC[C@H]2[C@@H]3C(=O)C[C@@H]4CC(=O)CC[C@]4(C)[C@H]3CC(=O)[C@]12C; assay: cells, lysate or membranes named; conditions: other: purified enzyme, 340 nm, 50 mM KPi pH 8.0, substrate DHCA / cofactor NADPH
[3] = substrate: NC(=O)C1=CN([C@@H]2O[C@H](COP(=O)(O)OP(=O)(O)OC[C@H]3O[C@@H](n4cnc5c(N)ncnc54)[C@H](OP(=O)(O)O)[C@@H]3O)[C@@H](O)[C@H]2O)C=CC1; assay: cells, lysate or membranes named; conditions: other: purified enzyme, 340 nm, 50 mM KPi pH 8.0, substrate DHCA / cofactor NADPH
[4] = Photometric activity determination of 7β-HSDH and mutants (decrease in absorbance at 340 nm, DHCA reduction with NADPH); assay type: biochemical
Description: The activity of the 7β-HSDH and of the mutants was determined using a photometric assay, where the decrease in absorbance was measured at 340 nm over a period of 30 seconds.
The expression [R64E] in the first column of the table means that the arginine (R) in position 64 of the protein sequence had been replaced by glutamic acid (E) in the mutant in question. The respective amino acid is abbreviated using the international one-letter code. Analogously, [R64D] means that an aspartic acid has been introduced at this position.

[5] = Table 4, variants modified at position 64, 10 mM DHCA, NADPH, KPi pH 8.0
[6] = Table 9, variants modified at position 17

Sequence of 7β-HSDH obtainable from Collinsella aerofaciens DSM 3979 (A4ECA9 whole entry): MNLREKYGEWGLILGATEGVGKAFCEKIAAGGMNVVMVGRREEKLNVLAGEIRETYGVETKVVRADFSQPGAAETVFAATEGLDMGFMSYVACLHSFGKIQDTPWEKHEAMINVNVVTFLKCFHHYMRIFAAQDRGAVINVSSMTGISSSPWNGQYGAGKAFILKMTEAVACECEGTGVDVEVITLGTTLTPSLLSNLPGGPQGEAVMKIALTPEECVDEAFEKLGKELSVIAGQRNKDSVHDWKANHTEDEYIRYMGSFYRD

Molecule	kcat [1]	Km [2] [µM]	Vmax [2] [µmol/min/mg]	Km [3] [µM]	Vmax [3] [µmol/min/mg]	other results
C[C@H](CCC(=O)O)[C@H]1CC[C@H]2[C@@H]3C(=O)C[C@@H]4C[C@H](O)CC[C@]4(C)[C@H]3CC[C@]12C [Mutant 7-Keto-LCA, 7-keto-lithocholic acid]	950.77	–	–	–	–	Vmax [1]: 30.77 U/mg Protein
NC(=O)C1=CN([C@@H]2O[C@H](COP(=O)(O)OP(=O)(O)OC[C@H]3O[C@@H](n4cnc5c(N)ncnc54)[C@H](OP(=O)(O)O)[C@@H]3O)[C@@H](O)[C@H]2O)C=CC1 [NADPH]	1033.44	–	–	–	–	Vmax [1]: 33.44 U/mg Protein
C[C@H](CCC(=O)O)[C@H]1CC[C@H]2[C@@H]3[C@@H](O)C[C@@H]4C[C@H](O)CC[C@]4(C)[C@H]3CC[C@]12C [UDCA, Ursodeoxycholic acid]	1179.39	–	–	–	–	–
Collinsella aerofaciens 7β-HSDH mutant [R64E], with His tag, SEQ ID NO:4 (Collinsella aerofaciens ATCC 25986; R64E) (protein) MNLREKYGEWGLILGATEGVGKAFCEKIAAGGMNVVMVGRREEKLNVLAGEIRETYGVETKVVEADFSQPGAAETVFAATEGLDMGFMSYVACLHSFGKIQDTPWEKHEAMINVNVVTFLKCFHHYMRIFAAQDRGAVINVSSMTGISSSPWNGQYGAGKAFILKMTEAVACECEGTGVDVEVITLGTTLTPSLLSNLPGGPQGEAVMKIALTPEECVDEAFEKLGKELSVIAGQRNKDSVHDWKANHTEDEYIRYMGSFYRDLEHHHHHH	–	81.01 ± 18.9	41.6	45.48 ± 3.5	60.3	–
Collinsella aerofaciens 7β-HSDH mutant [G39S], with His tag, SEQ ID NO:5 (Collinsella aerofaciens ATCC 25986; G39S) (protein) MNLREKYGEWGLILGATEGVGKAFCEKIAAGGMNVVMVSRREEKLNVLAGEIRETYGVETKVVRADFSQPGAAETVFAATEGLDMGFMSYVACLHSFGKIQDTPWEKHEAMINVNVVTFLKCFHHYMRIFAAQDRGAVINVSSMTGISSSPWNGQYGAGKAFILKMTEAVACECEGTGVDVEVITLGTTLTPSLLSNLPGGPQGEAVMKIALTPEECVDEAFEKLGKELSVIAGQRNKDSVHDWKANHTEDEYIRYMGSFYRDLEHHHHHH	–	352.4 ± 42.7	52	34.5 ± 6.6	48.8	–
Collinsella aerofaciens 7β-HSDH dual mutant [G39S/R64E], with His tag, SEQ ID NO:6 (Collinsella aerofaciens ATCC 25986; G39S/R64E) (protein) MNLREKYGEWGLILGATEGVGKAFCEKIAAGGMNVVMVSRREEKLNVLAGEIRETYGVETKVVEADFSQPGAAETVFAATEGLDMGFMSYVACLHSFGKIQDTPWEKHEAMINVNVVTFLKCFHHYMRIFAAQDRGAVINVSSMTGISSSPWNGQYGAGKAFILKMTEAVACECEGTGVDVEVITLGTTLTPSLLSNLPGGPQGEAVMKIALTPEECVDEAFEKLGKELSVIAGQRNKDSVHDWKANHTEDEYIRYMGSFYRDLEHHHHHH	–	349.3 ± 5.23	54.3	76.6 ± 15.9	75.5	–
7β-HSDH [R64N]: 7β-HSDH mutant, R in position 64 replaced by N (protein, UniProt A4ECA9 1-263, looked up, variant R64N) 7beta-hydroxysteroid …: MNLREKYGEWGLILGATEGVGKAFCEKIAAGGMNVVMVGRREEKLNVLAGEIRETYGVETKVVNADFSQPGAAETVFAATEGLDMGFMSYVACLHSFGKIQDTPWEKHEAMINVNVVTFLKCFHHYMRIFAAQDRGAVINVSSMTGISSSPWNGQYGAGKAFILKMTEAVACECEGTGVDVEVITLGTTLTPSLLSNLPGGPQGEAVMKIALTPEECVDEAFEKLGKELSVIAGQRNKDSVHDWKANHTEDEYIRYMGSFYRD	–	–	–	–	–	Specific activity [4, 5]: 0.6 U/mg; Volumetric activity [4, 5]: 3.4 U/ml
7β-HSDH [T17S]: 7β-HSDH mutant, threonine at position 17 replaced by S (protein, UniProt A4ECA9 1-263, looked up, variant T17S) 7beta-hydroxysteroid …: MNLREKYGEWGLILGASEGVGKAFCEKIAAGGMNVVMVGRREEKLNVLAGEIRETYGVETKVVRADFSQPGAAETVFAATEGLDMGFMSYVACLHSFGKIQDTPWEKHEAMINVNVVTFLKCFHHYMRIFAAQDRGAVINVSSMTGISSSPWNGQYGAGKAFILKMTEAVACECEGTGVDVEVITLGTTLTPSLLSNLPGGPQGEAVMKIALTPEECVDEAFEKLGKELSVIAGQRNKDSVHDWKANHTEDEYIRYMGSFYRD	–	–	–	–	–	Specific activity [4, 6]: 17.2 U/mg; Volumetric activity [4, 6]: 580 U/ml
